Laboratory results reported in US20110217237A1 (AbbVie / Abbott, published 2011).
Residue numbers refer to the chain shown, from its start. Like-named read-outs stand apart in the source and are kept apart here.

Legend:
[1] = target: T1, human DLL4 extracellular domain (human, UniProt Q9NR61 27-529); test: SPR (Biacore)
T1 construct: purified recombinant ECD; biotin-labelled or 6xHis-tagged depending on the assay; also called huDLL4 ECD; hu DLL4 ECD

[2] = target: T2, mouse DLL4 extracellular domain (mouse, UniProt Q9JI71 27-532); test: SPR (Biacore)
T2 construct: extracellular domain; also called muDLL4 ECD; murine DLL4
T2 sequence (Q9JI71 27-532): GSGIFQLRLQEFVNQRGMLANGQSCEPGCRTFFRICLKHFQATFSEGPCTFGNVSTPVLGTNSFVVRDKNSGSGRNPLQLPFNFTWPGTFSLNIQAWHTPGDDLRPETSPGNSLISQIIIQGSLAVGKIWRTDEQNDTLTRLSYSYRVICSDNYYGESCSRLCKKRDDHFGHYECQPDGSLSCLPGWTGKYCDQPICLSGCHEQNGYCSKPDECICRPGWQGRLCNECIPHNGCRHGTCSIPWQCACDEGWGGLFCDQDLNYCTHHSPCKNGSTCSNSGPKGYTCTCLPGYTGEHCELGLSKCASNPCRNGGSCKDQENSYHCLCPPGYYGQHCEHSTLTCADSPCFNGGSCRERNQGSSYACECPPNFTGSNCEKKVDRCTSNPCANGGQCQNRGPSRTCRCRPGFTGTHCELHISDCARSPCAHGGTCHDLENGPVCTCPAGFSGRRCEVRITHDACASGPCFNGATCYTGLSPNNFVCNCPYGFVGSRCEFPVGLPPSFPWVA

[3] = target: T1, human DLL4 extracellular domain; test: binding ELISA
[4] = target: T3, cynomolgus monkey DLL4 extracellular domain (cynomolgus monkey); test: binding ELISA
T3 construct: extracellular domain; also called cynoDLL4 ECD; Cyno DLL4

[5] = target: T2, mouse DLL4 extracellular domain; test: binding ELISA
[6] = target: T4, human DLL4, full length, on cells (human, UniProt Q9NR61 27-685); test: FACS, DLL4 cells
T4 construct: also called huDLL4 cells; human DLL4-293G
T4 sequence (Q9NR61 27-685 limits assumed): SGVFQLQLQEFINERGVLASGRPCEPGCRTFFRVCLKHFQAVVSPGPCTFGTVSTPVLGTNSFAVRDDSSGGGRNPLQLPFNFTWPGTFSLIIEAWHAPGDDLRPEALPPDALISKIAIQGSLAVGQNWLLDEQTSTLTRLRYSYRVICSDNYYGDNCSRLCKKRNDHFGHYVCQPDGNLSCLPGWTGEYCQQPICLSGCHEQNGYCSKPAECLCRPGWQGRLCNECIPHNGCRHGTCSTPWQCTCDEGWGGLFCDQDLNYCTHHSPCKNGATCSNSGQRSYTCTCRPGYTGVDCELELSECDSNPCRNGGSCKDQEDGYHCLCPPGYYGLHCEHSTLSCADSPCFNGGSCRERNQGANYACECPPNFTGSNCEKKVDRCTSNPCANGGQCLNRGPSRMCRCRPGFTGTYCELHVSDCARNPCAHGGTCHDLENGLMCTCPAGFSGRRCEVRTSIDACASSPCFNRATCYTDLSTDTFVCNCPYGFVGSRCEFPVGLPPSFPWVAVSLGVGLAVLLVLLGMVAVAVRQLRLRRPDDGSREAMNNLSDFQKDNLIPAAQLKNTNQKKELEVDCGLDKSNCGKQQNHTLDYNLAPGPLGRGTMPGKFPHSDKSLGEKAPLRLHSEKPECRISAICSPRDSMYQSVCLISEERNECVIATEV

[7] = target: T5, mouse DLL4 on cells (mouse, UniProt Q9JI71 27-686); test: FACS, DLL4 cells
T5 construct: whole, on cells; also called mouse DLL4-293G; mu DLL4 cells
T5 sequence (Q9JI71 27-686): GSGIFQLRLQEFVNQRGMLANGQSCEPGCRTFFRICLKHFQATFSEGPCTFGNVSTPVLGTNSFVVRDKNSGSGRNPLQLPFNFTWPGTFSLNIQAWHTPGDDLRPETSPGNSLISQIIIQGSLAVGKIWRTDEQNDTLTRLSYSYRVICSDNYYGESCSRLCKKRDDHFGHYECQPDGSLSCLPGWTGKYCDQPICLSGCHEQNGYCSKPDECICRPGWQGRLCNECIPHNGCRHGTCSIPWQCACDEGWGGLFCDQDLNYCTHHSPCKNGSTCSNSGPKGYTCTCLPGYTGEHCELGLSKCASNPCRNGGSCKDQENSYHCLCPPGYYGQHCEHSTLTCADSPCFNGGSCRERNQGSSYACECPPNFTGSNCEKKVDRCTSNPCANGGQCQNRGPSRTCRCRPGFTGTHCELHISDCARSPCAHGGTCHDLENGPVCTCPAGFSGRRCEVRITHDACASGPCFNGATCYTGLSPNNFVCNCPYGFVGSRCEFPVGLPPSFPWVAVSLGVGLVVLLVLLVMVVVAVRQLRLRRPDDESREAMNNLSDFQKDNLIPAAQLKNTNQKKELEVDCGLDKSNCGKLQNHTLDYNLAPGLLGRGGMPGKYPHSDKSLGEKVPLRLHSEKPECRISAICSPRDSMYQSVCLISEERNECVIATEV

[8] = target: T4, human DLL4, full length, on cells; test: FACS, DLL4 cells; remark: listed apart in the source
[9] = target: T5, mouse DLL4 on cells; test: FACS, DLL4 cells; remark: listed apart in the source
[10] = target: T4, human DLL4, full length, on cells; test: cell-based or functional assay
[11] = target: T1, human DLL4 extracellular domain; test: competition ELISA vs Notch-1
[12] = target: T2, mouse DLL4 extracellular domain; test: competition ELISA vs Notch-1
[13] = target: T4, human DLL4, full length, on cells; test: competition FACS: huNotch-1 to DLL4 cells
Method: (§1) Notch blocking assay: Briefly, stable cell lines overexpressing cell-surface DLL4 were harvested from tissue culture flasks and re-suspended in phosphate buffered saline (PBS) containing 1% bovine serum albumin and 1 mM CaCl₂ (FACS buffer). HEK293G-DLL4 cells were dispensed into 96-well plate (v-bottom) at 1.5×10⁵ cells/well in FACS buffer. After spinning down cells and discarding the supernatant, 50 μL of purified IgG with appropriate dilution were added to each well, and incubated on ice at 4° C. for 60 minutes, followed by addition of 50 μL/well of Notch1-biotin at 0.2 μg/mL for human DLL4-293G or 2.0 μg/mL for mouse DLL4-293G (1.0 or 0.1 μg/mL final) for an additional 1 hour incubation ice at 4° C. After washing the cells two times with FACS buffer, 50 μL of R-phycoerythrin-conjugated streptavidin (1:150 dilution in FACS buffer) (Jackson ImmunoResearch, West Grove, Pa., Cat.#016-110-084) were added. Following an incubation on ice (4° C., 60 minutes), cells were washed three times and resuspended in FACS buffer. Fluorescence was measured using a Becton Dickinson FACSCalibur-HTS (Becton Dickinson, San Jose, Calif.). Data were analyzed using Graphpad Prism software, and IC₅₀ values were reported as the concentration of antibody to achieve 50% reduction of Notch1 bound to DLL4 expressing cells.

[14] = target: T5, mouse DLL4 on cells; test: competition FACS: huNotch-1 to DLL4 cells
Method: as §1

[15] = target: T1, human DLL4 extracellular domain; test: SPR (Biacore); remark: listed apart in the source
Method: (§2) The BIACORE® surface plasmon resonance assay (Biacore, Inc., Piscataway, N.J., US) determines the affinity of antibodies with kinetic measurements of on-rate and off-rate constants. Binding of DLL4 antibodies to a purified recombinant DLL4 extracellular domain (ECD) was determined by surface plasmon resonance-based measurements with a Biacore® instrument (either a Biacore 2000, Biacore 3000, or Biacore T100; GE Healthcare, Piscataway, N.J., US) using running buffer HBS-EPB (10 mM HEPES [pH 7.4], 150 mM NaCl, 3 mM EDTA, 0.1 mg/ml BSA and 0.005% surfactant P20) at 25° C. For example, approximately 9000 RU of goat anti-human Fc specific polyclonal antibody (Thermo Fisher Scientific Inc., Rockford, Ill., US) diluted in 10 mM sodium acetate (pH 4.5) is directly immobilized across a CMS research grade biosensor chip using a standard amine coupling kit according to manufacturer's instructions and procedures at 25 μg/ml. Unreacted moieties on the biosensor surface were blocked with ethanolamine. For kinetic analysis, rate equations derived from the 1:1 Langmuir binding model were fitted simultaneously to multiple antigen injections (using global fit analysis) with the use of Scrubber 2 (BioLogic Software), Biacore Biaevaluation 4.0.1 software or Biacore T100 Evaluation software. Purified antibodies were diluted in running buffer for capture across goat anti-human Fc reaction surfaces. Antibodies to be captured as a ligand (1 μg/ml) were injected over reaction matrices at a flow rate of 10 μl/min. During the assay, all measurements were referenced against the capture surface alone (i.e., with no captured anti-DLL4 antibody). […] The equilibrium dissociation constant KD (M) of the reaction between antibodies and the target antigen was then calculated from the kinetic rate constants by the following formula: KD=Koff/Kₒₙ. Binding was recorded as a function of time and kinetic rate constants were calculated.

[16] = target: T3, cynomolgus monkey DLL4 extracellular …; test: SPR (Biacore)
Method: as §2

[17] = target: T6, rat DLL4 extracellular domain (rat, UniProt D3ZHH1 28-530); test: SPR (Biacore)
T6 construct: extracellular domain; also called ratDLL4 ECD
T6 sequence (D3ZHH1 28-530): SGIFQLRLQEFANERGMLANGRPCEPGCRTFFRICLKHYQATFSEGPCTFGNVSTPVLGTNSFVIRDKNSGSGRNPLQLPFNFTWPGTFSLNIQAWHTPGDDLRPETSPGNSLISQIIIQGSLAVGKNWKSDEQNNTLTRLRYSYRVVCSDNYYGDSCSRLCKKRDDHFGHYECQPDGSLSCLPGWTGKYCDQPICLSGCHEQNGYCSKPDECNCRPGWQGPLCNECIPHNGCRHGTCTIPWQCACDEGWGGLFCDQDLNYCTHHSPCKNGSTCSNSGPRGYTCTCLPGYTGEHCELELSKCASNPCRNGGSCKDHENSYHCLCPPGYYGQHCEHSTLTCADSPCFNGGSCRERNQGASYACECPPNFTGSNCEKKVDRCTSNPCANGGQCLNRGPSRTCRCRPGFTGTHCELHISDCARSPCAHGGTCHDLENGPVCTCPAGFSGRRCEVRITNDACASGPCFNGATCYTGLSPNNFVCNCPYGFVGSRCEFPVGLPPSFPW
Method in brief: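 Purified anti-DLL4 antibodies (1 μg/ml) captured on immobilized goat anti-human Fc, with DLL4 ECD injected as analyte; HBS-EPB running buffer (pH 7.4), 25° C, referenced against capture-only surface. On/off rates from global 1:1 Langmuir fit; KD = Koff/Kon.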

[18] = target: T4, human DLL4, full length, on cells; test: FACS, DLL4 cells; remark: listed apart in the source
Method: (§3) Stable cell lines overexpressing cell-surface DLL4 were harvested from tissue culture flasks, washed four times and resuspended in phosphate buffered saline (PBS) containing 1% bovine serum albumin and 1 mM CaCl₂ (FACS buffer). 1.5×10⁵ cells were incubated with antibodies at various concentrations in FACS buffer for 60 minutes on ice. […] Following an incubation on ice (4° C., 60 minutes), cells were washed three times and resuspended in FACS buffer. Fluorescence was measured using a Becton Dickinson FACSCalibur-HTS (Becton Dickinson, San Jose, Calif., US). Data were analyzed using Graphpad Prism software and EC₅₀ values were reported as the concentration of antibody to achieve 50% of maximal DLL4 antibodies binding to DLL4 expressing cells. […]

[19] = target: T5, mouse DLL4 on cells; test: FACS, DLL4 cells; remark: listed apart in the source
Method: as §3

[20] = target: T4, human DLL4, full length, on cells; test: cell-based or functional assay; remark: listed apart in the source
[21] = target: T4, human DLL4, full length, on cells; test: competition FACS: huNotch-1-biotin to DLL4 cells
Method: as §1, with “cells. […]” for “cells.”

[22] = target: T5, mouse DLL4 on cells; test: competition FACS: huNotch-1-biotin to DLL4 cells
Method: as §1, with “cells. […]” for “cells.”

[23] = target: T2, mouse DLL4 extracellular domain; test: competition ELISA: biotin-DLL4 ECD to coated huNotch-1
Method: Plates were then washed 3 times with wash buffer (PBS, 0.05% Tween-20) and blocked with 200 μl/well blocking buffer (D-PBS, 1% BSA, 1 mM CaCl₂, 0.05% Tween-20) for 1 hour at 25° C. While blocking, biotin labeled DLL4 extracellular domain (14 nM) was mixed with antibody (30 pM-66 nM, 3-fold serial dilution in blocking buffer) for 1 hour at 25° C. with shaking. Assay plates were washed after blocking, and incubated with DLL4/antibody mixtures (100 μl/well, 1 hour at 25° C. with shaking). Plates were washed again and 100 μl/well streptavidin conjugated with HRP (Fitzgerald #65R-S104PHRPx, diluted 1:5,000 in blocking buffer) was added for 1 hour at 25° C. with shaking. After a final wash, plates were developed using 100 μl/well substrate (TMB Sigma #T8665), and the reaction was stopped using 100 μl/well 1N HCl, and the absorbance was read at 450 nm. Data were analyzed using Graphpad Prism software and IC₅₀ values were reported as the concentration of antibody to achieve 50% reduction of DLL4 bound to Notch1.
Further characterization determined 37D10 and 40B10 were identical rat mAbs.

T1 sequence (Q9NR61 27-529 limits assumed): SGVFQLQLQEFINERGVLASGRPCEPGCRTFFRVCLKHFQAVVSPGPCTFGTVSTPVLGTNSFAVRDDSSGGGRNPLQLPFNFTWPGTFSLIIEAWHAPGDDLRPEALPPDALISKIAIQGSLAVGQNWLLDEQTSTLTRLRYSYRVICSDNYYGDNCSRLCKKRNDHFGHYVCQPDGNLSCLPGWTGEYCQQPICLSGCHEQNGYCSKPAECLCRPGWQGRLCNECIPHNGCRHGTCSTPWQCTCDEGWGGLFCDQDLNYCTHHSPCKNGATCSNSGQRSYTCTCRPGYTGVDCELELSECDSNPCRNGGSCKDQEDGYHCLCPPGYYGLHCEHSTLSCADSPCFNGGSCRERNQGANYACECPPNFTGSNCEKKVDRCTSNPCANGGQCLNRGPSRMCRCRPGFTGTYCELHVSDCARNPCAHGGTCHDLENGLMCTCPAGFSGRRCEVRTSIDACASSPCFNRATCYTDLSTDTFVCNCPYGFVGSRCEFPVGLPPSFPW

B1: 1A11 chimeric antibody (antibody, human IgG1, V domains shown)
VH: EVQLVESGGGLVQPGRSMKLSCAASGFTFRNFPMAWVRQAPTRGLEWVATISSSDGTTYYRDSVKGRFTISRDNAKSTLYLQVNSLRSEDTATYYCSRGYYNSPFAYWGQGTLVTVSS
VL: DIQMTQSPASLSASLGETVTIECRASEDIYSNLAWYQQKPGNSPQLLIFDTNNLADGVPSRFSGSGSGTQSSLKINSLQSEDVASYFCQQYNNYPPTFGGGTKLELKR
notes: also called Chimera of 1A11; 1A11 (chimera)
With B1 the Kd [1] was 9 nM, the Kd [2] was 24 nM and the EC50 [3] was 0.2 nM. The EC50 [4] was 0.33 nM, the EC50 [5] was 0.3 nM and the EC50 [6] was 19.6 nM. It also gave an EC50 [7] of 0.74 nM, an EC50 [8] of 6.29 nM and an EC50 [9] of 0.53 nM. For the same binder, the “Reporter Assay (EC50, nM)” value [10] was 5.98 nM, the IC50 [11] was 1.8 nM and the IC50 [12] was 3.5 nM. It also gave an IC50 [13] of 2.34 nM and an IC50 [14] of 0.682 nM.

B2: 14A11 rat anti-DLL4 monoclonal antibody (antibody, rat IgG2a, V domains shown)
VH: EVQLQQSGPELAKPGSSVKISCKASGYTFTNSYISWIKQTTGQGLEYVGYINTGSGGADYNEKFKGKATLTVDKSSRTAFMQLSSLTPGDSAVYYCAKSILLGSTCYFDYWGQGVLVTVSS
VL: NTVLTQSPALAVSLGQRVTISCKASRSVSSPMYSYIYWYQQKPGQQPKLLIYRASTLASGVPARFSGSGSGTDFTLNIDPVEADDIATYFCQQSWSDPFTFGSGTKLEIKR
notes: rat IgG2a/K hybridoma mAb; also called MC13-14A11.3A4
With B2 the Kd [15] was 10.3 nM, the koff [15] was 0.0012 s⁻¹ and the kon [15] was 120000 M⁻¹ s⁻¹. For the same binder, the Kd [16] was 11.6 nM, the koff [16] was 0.0012 s⁻¹ and the kon [16] was 110000 M⁻¹ s⁻¹. For the same binder, the Kd [2] was 1.3 nM, the koff [2] was 9e-05 s⁻¹ and the kon [2] was 70000 M⁻¹ s⁻¹. The binding result [17] was “no binding”, the EC50 [18] was over 50 nM and the EC50 [19] was 2.1 nM. The “Notch activation Inhibition (IC50, nM), huDLL4 cell/Notch reporter cells” value [20] was 2.7 nM, the IC50 [21] was 205 nM and the IC50 [22] was 1.6 nM. The IC50 [23] was 19.8 nM.

B3: 37D10 chimeric antibody (antibody, human IgG1, V domains shown)
VH: AVQLVESGGGLVQPKESLKISCAASGFTFSNAAMYWVRLAPGKGLEWVARIRTKPNNYATYYAESVKGRFTISRDDSKSMVYVQMDNLKTEDTAMYYCTAAPWRDSYAHVYWGQGVMVTVSS
VL: DIQMTQSPPVLSASVGDRVTLSCKASQNIHKNLDWYQQKHGDAPKLLIYYTDHLQTGVPSRFSGSGSATDYTLTISSLQPEDVATYYCYQYNGGPFTFGSGTKLEIKR
notes: also called Chimera of 37D10
In the case of B3, the EC50 [6] is reported as 2.32 nM, the EC50 [7] is reported as 0.99 nM and the IC50 [13] is reported as 5.95 nM. The IC50 [14] was 4.39 nM.

B4: 14A11 chimeric antibody (antibody, human IgG1, V domains shown)
VH: B2 VH
VL: B2 VL
notes: also called Chimera of 14A11
B4 showed an EC50 [6] of 1.61 nM, an EC50 [7] of 2.14 nM and an IC50 [13] of 4.03 nM. For the same binder, the IC50 [14] was 1.39 nM.

B5: 15D6 chimeric antibody (antibody, human IgG1, V domains shown)
VH: B2 VH with N31S, V48I, A58T, G66D, A79V, C106Y, F108L, L116M
VL: B2 VL with N1D, V28L, P43L, K48R
notes: also called Chimera of 15D6
For B5, the EC50 [6] was 1.72 nM, the EC50 [7] was 1.82 nM and the IC50 [13] was 10.5 nM. It also gave an IC50 [14] of 1.49 nM.
